Assay results taken from article doi:10.1101/2023.06.05.543797, “Crystal structure of SUN1-KASH6 reveals an asymmetric LINC complex architecture compatible with nuclear membrane insertion” (bioRxiv, 2023).

Target: the molecule itself
Assay: crystal structure; co-expressed and co-purified SUN1-KASH6 complex at 12 mg/ml; sitting drops, 20°C; crystals at pH 6.0 (1.7 Å) and pH 5.5 (2.0 Å and 2.3 Å)

B1: KASH domain of human JAW1/LRMP (amino-acids 515-555) (peptide, UniProt Q12912 515-555, looked up)
chain: TGQLFQKSVDAAPTQQEDSWTSLEHILWPFTRLRHNGPPPV
notes: JAW1/LRMP (lymphoid restricted membrane protein), human, KASH domain, amino-acids 515-555; also called KASH6; KASH6 peptide; not shown: His6, N-terminal, cleaved; MBP, N-terminal, cleaved
B1: binds.
